Source: patent US20190300576A1 (MIT, published 2019)
*1 amine or outer side, *2 acyl side, *3 side chain or, on linkers, in order; H or OH if unused. Bridges are numbered along the chain shown (N, C = ends). Where no end group is shown, it is not given here. [ ]: non-standard residue; d: D form. The star is where a group is joined. Hexa = hexylalanine = (2S)-2-aminononanoic acid, CCCCCCC[C@H](N[*:1])C(=O)[*:2]; Biotin = O=C1N[C@H]2[C@H](CS[C@H]2CCCCC(=O)*)N1; perfluorosulfone = not defined here; R8 = C=CCCCCCC[C@@](C)(N)C(=O)O; F2f = difluoro-L-phenylalanine; Cba = N[C@@H](CC1CCC1)C(=O)O; S5 = C=CCCC[C@](C)(N)C(=O)O; Anta = not defined here; Napa = not defined here; Dap = NC[C@H](N)C(=O)O; F3f = not defined here

What was measured:
[1] = molecular target: MDM2 in MDM2 overexpressing SJSA-1 cells (UniProt Q00987 1-491, limits assumed); assay: cell-based or functional assay
[2] = molecular target: T1, SUMO-^25-109MDM2 (UniProt Q00987 25-109); assay: BLI, peptide on streptavidin sensors, global fit
T1 construct: range 25-109; Expressed in Rosetta (DE3) pLysS cells, MW=23 297 Da, used with the SUMO tag on; not shown: SUMO fusion tag (protein purified on Ni-NTA)

[3] = molecular target: T1, SUMO-^25-109MDM2; assay: BLI, immobilized assay for biotinylated peptide
[4] = molecular target: T1, SUMO-^25-109MDM2; assay: BLI, estimated in solution (competition assay) for acetylated construct
[5] = molecular target: T1, SUMO-^25-109MDM2; assay: BLI, biotinylated peptide immobilized
[6] = molecular target: T1, SUMO-^25-109MDM2; assay: BLI in-solution competition assay, free MDM2 read on immobilized 63a
[7] = molecular target: T1, SUMO-^25-109MDM2; assay: BLI, acetylated peptide (in solution competition assay)

| Binder | IC50, viability of SJSA-1 cells [1] [nM] | Kd [2] [nM] | other results |
| --- | --- | --- | --- |
| Ac-LT[F2f]KEYWAE[Cba]KSAA-NH2 (linker 4-11 via perfluorosulfone; reading uncertain; also: printed as LT(F2f)KEYWAE(Cba)KSAA) [peptide 11b-S4] | > 20000 |  |  |
| Ac-LT[F2f][Dap]EY[Hexa]AQ[Cba][Dap]SAA-NH2 (bridge 4-11 via perfluorosulfone; reading uncertain) [peptide 10b-S1] | > 20000 |  |  |
| Ac-LT[F2f][R8]EY[Hexa]AQ[Cba][S5]SAA-NH2 (staple 4-11) [peptide 10b-M] | 2400 |  |  |
| Biotin-LT[F2f][R8]EY[Hexa]AQ[Cba][S5]SAA-NH2 (staple 4-11, Macrocyclic) [peptide 10a-M] |  | 5 | Kd [3]: 3 nM |
| Ac-LT[F2f][Dap]EYWAQ[Cba][Dap]SAA-NH2 (linker 4-11 via perfluoroaryl sulfone, Macrocyclic) [peptide 11b-S1] | 7800 |  | Kd [4]: 1 nM |
| Ac-LT[F2f][R8]EFWAQ[Cba][S5]SAA-NH2 (staple 4-11) [peptide 11b-M] | 3200 |  |  |
| LTF[R8]EYWAE[Cba][S5]SAA-NH2 (staple 4-11; N-terminus assumed; SMILES CC(C)C[C@H](N)C(=O)N[C@H](C(=O)N[C@@H](Cc1ccccc1)C(=O)N[C@]1(C)CCCCCCC=CCCC[C@@](C)(C(=O)N[C@@H](CO)C(=O)N[C@@H](C)C(=O)N[C@@H](C)C(N)=O)NC(=O)[C@H](CC2CCC2)NC(=O)[C@H](CCC(=O)O)NC(=O)[C@H](C)NC(=O)[C@H](Cc2c[nH]c3ccccc23)NC(=O)[C@H](Cc2ccc(O)cc2)NC(=O)[C@H](CCC(=O)O)NC1=O)[C@@H](C)O) [peptide ATSP-7040] | 3000 |  |  |
| Biotin-LTFPHYWAELTSK-NH2 (SMILES CC(C)C[C@H](NC(=O)CCCC[C@@H]1SC[C@@H]2NC(=O)N[C@@H]21)C(=O)N[C@H](C(=O)N[C@@H](Cc1ccccc1)C(=O)N1CCC[C@H]1C(=O)N[C@@H](Cc1c[nH]cn1)C(=O)N[C@@H](Cc1ccc(O)cc1)C(=O)N[C@@H](Cc1c[nH]c2ccccc12)C(=O)N[C@@H](C)C(=O)N[C@@H](CCC(=O)O)C(=O)N[C@@H](CC(C)C)C(=O)N[C@H](C(=O)N[C@@H](CO)C(=O)N[C@@H](CCCCN)C(N)=O)[C@@H](C)O)[C@@H](C)O) [peptide 3a] |  |  | Kd [5]: 80 nM |
| Ac-LTLEHYWAQLTSK-NH2 (Text says 3Phe to Leu or Tyr (8a and 9a)) [peptide 8b] |  |  | Kd [6]: 2500 nM; Kd [7]: 2700 nM |
| Ac-LTYEHYWAQLTSK-NH2 (Text says 3Phe to Leu or Tyr (8a and 9a)) [peptide 9b] |  |  | Kd [6]: 8700 nM |
| Biotin-LT[F2f]EHY[Hexa]AQ[Cba]TSK-NH2 [peptide 10a] |  | 0.5 |  |
| Biotin-LT[F2f]EHYWAQ[F2f]TSK-NH2 [peptide 25a] |  | 20 |  |
| Ac-LTFEHYWAQYTSK-NH2 [peptide 7b] |  |  | Kd [6]: 490 nM |
| Biotin-LT[F3f]EHY[Anta]AQ[Cba]TSK-NH2 (reading uncertain; also: printed as LT(F3f)EHY(Anta)AQ(Cba)TSK) [peptide 22a] |  | 10 |  |
| Biotin-LT[F2f]EHYWAQ[Cba]TSK-NH2 [peptide 11a] |  | 2 |  |
| Ac-LT[F2f][R8]EY[Napa]AE[Cba]KSAA-NH2 (staple (positions not given here); not fully specified (residue 11, bridges); reading uncertain) [peptide 27b-M] | 2700 |  |  |
| Biotin-LT[F2f]EHYWAQ[Hexa]TSK-NH2 [peptide 19a] |  | 8 |  |
| Ac-LT[F2f]KEY[Hexa]AQ[Cba]KSAA-NH2 (linker 4-11 via perfluorosulfone; reading uncertain; also: printed as LT(F2f)KEY(Hexa)AQ(Cba)(K)SAA) [peptide 10b-S4] | > 20000 |  |  |
| Ac-LT[F2f]KEY[Napa]AQ[Cba]KSAA-NH2 (linker 4-11 via perfluorosulfone; reading uncertain) [27b-S4] | > 20000 |  |  |
| Ac-LT[F2f][R8]EY[Hexa]AQ[Cba][S5]SAA-NH2 (bridges not given here) [peptide 10b-M unclosed] | 17000 |  |  |
